In PMC13355314 (2026) one finds Kd data, which are given here for 3 molecules.

As a reminder, the Kd is the equilibrium constant for the complex coming apart. A higher Kd goes with weaker binding.

The target in test [1] is biotinylated YPEL5–WDR26^ΔCTLH complex (AviTag on WDR26^ΔCTLH) (UniProt Q9H7D7 1-661; P62699 1-121, biotin on the C-terminal AviTag (BirA)). The experiment in a line: BLI. Background: Biolayer interferometry detects binding as a change in optical thickness at a sensor tip.
The target of another test is BRD4 BD1 BD1 (Homo sapiens, UniProt O60885, ZZ1-SO2H).

B1: BD1 domain of BRD2 (domain or fragment)
chain: not shown
On to B1, for which, in test [1], the Kd amounted to 16.4 nM.

B2: BD1 domain of BRD3 (domain or fragment)
chain: not shown
Molecule B2 yielded a Kd in test [1] of 23.2 nM.

B3: YPEL5 (protein)
chain: MGRIFLDHIGGTRLFSCANCDTILTNRSELISTRFTGATGRAFLFNKVVNLQYSEVQDRVMLTGRHMVRDVSCKNCNSKLGWIYEFATEDSQRYKEGRVILERALVRESEGFEEHVPSDNS
The molecule B3 gave a dissociation constant Kd with BRD4 BD1 BD1 of around 12 nM.
